These results are taken from paper PMC6555819, “Comprehensive study of nuclear receptor DNA binding provides a revised framework for understanding receptor specificity”.

Sequences and labels used below:
B1: NRC3_wobSeed109_DR4_A8G_o1 (dsDNA)
DNA 1: GCCGTCCGAGGTCATAGGAGGTCAGTGAAGACAGATGCGATTGACAGCGTAGAATGAAGG
DNA 2: CCTTCATTCTACGCTGTCAATCGCATCTGTCTTCACTGACCTCCTATGACCTCGGACGGC
B2: NRC3_wobSeed13_DR0_G21A_o1 (dsDNA)
DNA 1: GCCGTCCAAGGTCAAGGTCAATGAAAGAGACTCGAAGCGATTGACAGCGTAGAATGAAGG
DNA 2: CCTTCATTCTACGCTGTCAATCGCTTCGAGTCTCTTTCATTGACCTTGACCTTGGACGGC
B3: NRC3_random_hg19_148_o1 (dsDNA)
DNA 1: GCTGTGTCACCATGAGCAATCCAACCAGGCATCCCAGCGATTGACAGCGTAGAATGAAGG
DNA 2: CCTTCATTCTACGCTGTCAATCGCTGGGATGCCTGGTTGGATTGCTCATGGTGACACAGC
B4: NRC3_random_hg19_210_o1 (dsDNA)
DNA 1: GCATCATTTGCTCTGGGTGAAGCCAGCTACCATGTTGCGATTGACAGCGTAGAATGAAGG
DNA 2: CCTTCATTCTACGCTGTCAATCGCAACATGGTAGCTGGCTTCACCCAGAGCAAATGATGC
B5: NRC3_wobSeed93_DR3_T12G_o1 (dsDNA)
DNA 1: GCAGTCAAAGTGCATCTAGGTAACGTAAGATATGCTGCGATTGACAGCGTAGAATGAAGG
DNA 2: CCTTCATTCTACGCTGTCAATCGCAGCATATCTTACGTTACCTAGATGCACTTTGACTGC
B6: NRC3_wobSeed67_DR2_o1 (dsDNA)
DNA 1: GCCCAGACAGGTGAGAAGGTAACTCAGCCTCGATTAGCGATTGACAGCGTAGAATGAAGG
DNA 2: CCTTCATTCTACGCTGTCAATCGCTAATCGAGGCTGAGTTACCTTCTCACCTGTCTGGGC
B7: NRC3_random_hg19_395_o1 (dsDNA)
DNA 1: GCGTACAATTGCCCTCTTAGCAGAGTTCTGGTGCATGCGATTGACAGCGTAGAATGAAGG
DNA 2: CCTTCATTCTACGCTGTCAATCGCATGCACCAGAACTCTGCTAAGAGGGCAATTGTACGC
B8: NRC3_wobSeed90_DR3_A14G_o1 (dsDNA)
DNA 1: GCCATACAGGGTCGGCTAGGCCAGAGTAGGGACGGCGCGATTGACAGCGTAGAATGAAGG
DNA 2: CCTTCATTCTACGCTGTCAATCGCGCCGTCCCTACTCTGGCCTAGCCGACCCTGTATGGC
B9: NRC3_random_hg19_137_o1 (dsDNA)
DNA 1: GCCTCACGTGTTTCCTGGTAGAAATGCAGAGTACAAGCGATTGACAGCGTAGAATGAAGG
DNA 2: CCTTCATTCTACGCTGTCAATCGCTTGTACTCTGCATTTCTACCAGGAAACACGTGAGGC
B10: NRC3_random_hg19_296_o1 (dsDNA)
DNA 1: GCGGCCTATGGCTCCAGAATGCTAATGCTACTCTGCGCGATTGACAGCGTAGAATGAAGG
DNA 2: CCTTCATTCTACGCTGTCAATCGCGCAGAGTAGCATTAGCATTCTGGAGCCATAGGCCGC
B11: NRC3_random_hg19_295_o1 (dsDNA)
DNA 1: GCGAGGTTGCAGAGATGTTCTCACTAAACATTCGTTGCGATTGACAGCGTAGAATGAAGG
DNA 2: CCTTCATTCTACGCTGTCAATCGCAACGAATGTTTAGTGAGAACATCTCTGCAACCTCGC
B12: NRC3_wobSeed122_DR5_G21T_o1 (dsDNA)
DNA 1: GCGCTAGTTGGTCAGTAAAATGTCACACACCGGTCGGCGATTGACAGCGTAGAATGAAGG
DNA 2: CCTTCATTCTACGCTGTCAATCGCCGACCGGTGTGTGACATTTTACTGACCAACTAGCGC
B13: NRC3_wobSeed88_DR3_G10A_o1 (dsDNA)
DNA 1: GCTAGCCTAAGTCATGCGGGCCAGTATAGTGTCGGCGCGATTGACAGCGTAGAATGAAGG
DNA 2: CCTTCATTCTACGCTGTCAATCGCGCCGACACTATACTGGCCCGCATGACTTAGGCTAGC
B14: NRC3_random_hg19_467_o1 (dsDNA)
DNA 1: GCGAAACTGCTGCAAAGGCCTACTGAAGCCTGACTGGCGATTGACAGCGTAGAATGAAGG
DNA 2: CCTTCATTCTACGCTGTCAATCGCCAGTCAGGCTTCAGTAGGCCTTTGCAGCAGTTTCGC
B15: NRC3_random_hg19_36_o1 (dsDNA)
DNA 1: GCCAGGCAGTTTGCTTGAGCTCAGGAGTTCAAGACTGCGATTGACAGCGTAGAATGAAGG
DNA 2: CCTTCATTCTACGCTGTCAATCGCAGTCTTGAACTCCTGAGCTCAAGCAAACTGCCTGGC
B16: NRC3_random_hg19_377_o1 (dsDNA)
DNA 1: GCTTTAGAAGAAAGGTTTCATTACTGAGAGCAGCCAGCGATTGACAGCGTAGAATGAAGG
DNA 2: CCTTCATTCTACGCTGTCAATCGCTGGCTGCTCTCAGTAATGAAACCTTTCTTCTAAAGC
B17: NRC3_wobSeed136_DR5_T12G_o1 (dsDNA)
DNA 1: GCTAGCCTAGGGCATTCAGGGGCCAGTATAGAAAGCGCGATTGACAGCGTAGAATGAAGG
DNA 2: CCTTCATTCTACGCTGTCAATCGCGCTTTCTATACTGGCCCCTGAATGCCCTAGGCTAGC
B18: NRC3_wobSeed63_DR2_A14G_o1 (dsDNA)
DNA 1: GCCGAACTAGGTCGCCAGGACAGTGAAGAGGTTGGAGCGATTGACAGCGTAGAATGAAGG
DNA 2: CCTTCATTCTACGCTGTCAATCGCTCCAACCTCTTCACTGTCCTGGCGACCTAGTTCGGC
B19: NRC3_random_hg19_361_o1 (dsDNA)
DNA 1: GCAAACTGGGAGGTGGAGGTTGTAGTAAGCCAAGATGCGATTGACAGCGTAGAATGAAGG
DNA 2: CCTTCATTCTACGCTGTCAATCGCATCTTGGCTTACTACAACCTCCACCTCCCAGTTTGC
B20: NRC3_wobSeed59_DR2_o1 (dsDNA)
DNA 1: GCTCTATTAGTTGATTAGGGCAACCGAAACAGCGGAGCGATTGACAGCGTAGAATGAAGG
DNA 2: CCTTCATTCTACGCTGTCAATCGCTCCGCTGTTTCGGTTGCCCTAATCAACTAATAGAGC
B21: NRC3_random_hg19_316_o1 (dsDNA)
DNA 1: GCCAAAGACAGCTTTGCAAGGCCACTTCTGTTTGCTGCGATTGACAGCGTAGAATGAAGG
DNA 2: CCTTCATTCTACGCTGTCAATCGCAGCAAACAGAAGTGGCCTTGCAAAGCTGTCTTTGGC
B22: NRC3_random_hg19_245_o1 (dsDNA)
DNA 1: GCATGTTCCTTTACCCTAGCTGCAGTGGGTATCCACGCGATTGACAGCGTAGAATGAAGG
DNA 2: CCTTCATTCTACGCTGTCAATCGCGTGGATACCCACTGCAGCTAGGGTAAAGGAACATGC
B23: NRC3_wobSeed21_DR0_T11A_o1 (dsDNA)
DNA 1: GCCGTCAAAGATCAAGGTAACGTAACAGAAAGCAGCGCGATTGACAGCGTAGAATGAAGG
DNA 2: CCTTCATTCTACGCTGTCAATCGCGCTGCTTTCTGTTACGTTACCTTGATCTTTGACGGC
B24: NRC3_random_hg19_345_o1 (dsDNA)
DNA 1: GCGCAGTGGGTGATGATGTCACTGGTTAACGTGGCTGCGATTGACAGCGTAGAATGAAGG
DNA 2: CCTTCATTCTACGCTGTCAATCGCAGCCACGTTAACCAGTGACATCATCACCCACTGCGC
B25: NRC3_random_hg19_488_o1 (dsDNA)
DNA 1: GCGGTTGCAGTGAGCTGAGATCACACCACTGCACTCGCGATTGACAGCGTAGAATGAAGG
DNA 2: CCTTCATTCTACGCTGTCAATCGCGAGTGCAGTGGTGTGATCTCAGCTCACTGCAACCGC
B26: NRC3_random_hg19_87_o1 (dsDNA)
DNA 1: GCGACTGCTTGCATCAGTCAAGGTTTGGGCAGTGAGGCGATTGACAGCGTAGAATGAAGG
DNA 2: CCTTCATTCTACGCTGTCAATCGCCTCACTGCCCAAACCTTGACTGATGCAAGCAGTCGC
B27: NRC3_wobSeed66_DR2_C13A_o1 (dsDNA)
DNA 1: GCAATACAGGGTAACTAGGCCAGAGTAGGTACGAATGCGATTGACAGCGTAGAATGAAGG
DNA 2: CCTTCATTCTACGCTGTCAATCGCATTCGTACCTACTCTGGCCTAGTTACCCTGTATTGC
B28: NRC3_random_hg19_232_o1 (dsDNA)
DNA 1: GCTTAGCAGGAACTGAGAAGTCACACTCAAGAGTTAGCGATTGACAGCGTAGAATGAAGG
DNA 2: CCTTCATTCTACGCTGTCAATCGCTAACTCTTGAGTGTGACTTCTCAGTTCCTGCTAAGC
B29: NRC3_random_hg19_475_o1 (dsDNA)
DNA 1: GCATGAAAGTTTAGTATGTGTAGGGTAGTGCTTCATGCGATTGACAGCGTAGAATGAAGG
DNA 2: CCTTCATTCTACGCTGTCAATCGCATGAAGCACTACCCTACACATACTAAACTTTCATGC
B30: NRC3_random_hg19_15_o1 (dsDNA)
DNA 1: GCGTTGGTCAGCTGGTCTCGAACTCCTGACCTCAAGGCGATTGACAGCGTAGAATGAAGG
DNA 2: CCTTCATTCTACGCTGTCAATCGCCTTGAGGTCAGGAGTTCGAGACCAGCTGACCAACGC
B31: NRC3_random_hg19_144_o1 (dsDNA)
DNA 1: GCCAGTGCTGGCGTCGTAGTGCTTGCCATAACAGAGGCGATTGACAGCGTAGAATGAAGG
DNA 2: CCTTCATTCTACGCTGTCAATCGCCTCTGTTATGGCAAGCACTACGACGCCAGCACTGGC

Sequence of FXR:RXRa (Q96RI1 whole entry, chain 1 of 2): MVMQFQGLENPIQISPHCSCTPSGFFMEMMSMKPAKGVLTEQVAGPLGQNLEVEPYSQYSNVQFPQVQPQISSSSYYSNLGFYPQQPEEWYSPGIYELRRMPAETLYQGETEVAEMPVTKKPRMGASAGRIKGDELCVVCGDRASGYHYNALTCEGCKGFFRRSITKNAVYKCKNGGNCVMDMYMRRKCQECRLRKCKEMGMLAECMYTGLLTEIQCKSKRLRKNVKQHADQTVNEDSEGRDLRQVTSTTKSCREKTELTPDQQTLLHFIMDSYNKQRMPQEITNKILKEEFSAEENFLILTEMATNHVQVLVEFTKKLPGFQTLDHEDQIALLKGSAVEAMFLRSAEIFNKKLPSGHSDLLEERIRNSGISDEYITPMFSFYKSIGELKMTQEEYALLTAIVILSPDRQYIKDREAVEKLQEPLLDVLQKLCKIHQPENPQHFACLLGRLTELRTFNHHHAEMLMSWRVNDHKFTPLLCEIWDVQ
Sequence of FXR:RXRa (P19793 whole entry, chain 2 of 2): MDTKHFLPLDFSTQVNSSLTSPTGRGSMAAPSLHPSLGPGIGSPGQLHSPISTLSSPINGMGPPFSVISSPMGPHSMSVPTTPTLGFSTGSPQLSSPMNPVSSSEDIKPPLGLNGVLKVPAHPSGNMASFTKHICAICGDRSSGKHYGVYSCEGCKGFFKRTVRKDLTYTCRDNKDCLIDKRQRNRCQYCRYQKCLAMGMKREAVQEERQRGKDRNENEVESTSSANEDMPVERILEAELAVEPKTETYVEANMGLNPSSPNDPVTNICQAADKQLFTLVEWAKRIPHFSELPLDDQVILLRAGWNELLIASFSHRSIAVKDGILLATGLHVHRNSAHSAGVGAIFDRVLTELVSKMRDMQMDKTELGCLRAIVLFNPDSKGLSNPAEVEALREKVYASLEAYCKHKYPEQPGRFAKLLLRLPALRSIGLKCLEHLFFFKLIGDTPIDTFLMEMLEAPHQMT

The data set addresses FXR:RXRa (Homo sapiens, UniProt Q96RI1;P19793 full;full). As to the kind of experiment: no ligand; PBM; 270 nM : 90 nM RXRa; PBS pH 7.4, 2% milk, 0.02% Triton X-100, 1 mM DTT, BSA, 0.4 mg/ml salmon testes DNA. To be noted: tags: His kept;His cleaved; copies: 1;1; label: surface-attached array probe. The method, boiled down: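 Regression normalization was applied to scanned fluorescence from custom Agilent 4×180K protein-binding microarrays. Before scanning, arrays were incubated 1 h with ligand-free nuclear receptor dimers, and binding was detected with antibodies against each partner (one per run). Binding z-scores use the random background probes as reference.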
Consider B1, for which the binding signal was 8.19 PBM z-score against 500 random probes.
Next, B2: 8.19 PBM z-score against 500 random probes.
For B3, the binding signal is -0.04 PBM z-score against 500 random probes.
Consider B4, for which the binding signal was -0.02 PBM z-score against 500 random probes.
Next, B5: 0.12 PBM z-score against 500 random probes; B6: 0.47 PBM z-score against 500 random probes; B7: 0.09 PBM z-score against 500 random probes.
For the molecule B8, the binding signal is 0.13 PBM z-score against 500 random probes.
Next, B9: 0.08 PBM z-score against 500 random probes; B10: -0.48 PBM z-score against 500 random probes.
Next, B11: 0.03 PBM z-score against 500 random probes.
Next, B12: 0.1 PBM z-score against 500 random probes; B13: -0.37 PBM z-score against 500 random probes; B14: -0.59 PBM z-score against 500 random probes.
Turning to B15, the binding signal was -0.62 PBM z-score against 500 random probes.
Next, B16: -0.61 PBM z-score against 500 random probes; B17: -0.08 PBM z-score against 500 random probes; B18: 0.16 PBM z-score against 500 random probes.
Consider B19, for which the binding signal was 0.3 PBM z-score against 500 random probes.
Next, B20: 0.48 PBM z-score against 500 random probes; B21: -0.15 PBM z-score against 500 random probes.
The value for B22 was 0.41 PBM z-score against 500 random probes; that for B23 was 0.1 PBM z-score against 500 random probes.
The value for B24 was -0.31 PBM z-score against 500 random probes.
On to B25, for which the binding signal is -0.28 PBM z-score against 500 random probes.
Next, B26: -0.74 PBM z-score against 500 random probes; B27: -0.01 PBM z-score against 500 random probes.
Turning to B28, the binding signal is -0.34 PBM z-score against 500 random probes.
In the case of B29, the binding signal was 0.26 PBM z-score against 500 random probes.
Next, B30: 0.16 PBM z-score against 500 random probes; B31: -0.87 PBM z-score against 500 random probes.
